In article doi:10.1101/2022.05.18.492403 (bioRxiv, 2022):

B1: truncated C-terminal StrepII-tagged ScSbtB protein (SbtB-Δ104) (domain or fragment, Synechocystis sp. PCC 6803, UniProt P73954 1-104, looked up)
chain: MAKPANKLVIVTEKILLKKIAKIIDESGAKGYTVMNTGGKGSRNVRSSGQPNTSDIEANIKFEILTETREMAEEIADRVAVKYFNDYAGIIYICSAEVLYGHTF
B2: C-terminal StrepII-tagged ScSbtB C105A+C110A variant (natural protein, Synechocystis sp. PCC 6803)
chain: MAKPANKLVIVTEKILLKKIAKIIDESGAKGYTVMNTGGKGSRNVRSSGQPNTSDIEANIKFEILTETREMAEEIADRVAVKYFNDYAGIIYICSAEVLYGHTFAGPEGA

Target: the molecule itself
Assay: crystal structure

| Protein | stoichiometry N |
| --- | --- |
| B1 | 3 |
| B2 | 3 |
